Measurements from publication PMC9352680, “A comprehensive thermodynamic model for RNA binding by the Saccharomyces cerevisiae Pumilio protein PUF4”.

T1: PUF4 RNA-binding domain (Saccharomyces cerevisiae, UniProt P25339 537-888)
T1 sequence: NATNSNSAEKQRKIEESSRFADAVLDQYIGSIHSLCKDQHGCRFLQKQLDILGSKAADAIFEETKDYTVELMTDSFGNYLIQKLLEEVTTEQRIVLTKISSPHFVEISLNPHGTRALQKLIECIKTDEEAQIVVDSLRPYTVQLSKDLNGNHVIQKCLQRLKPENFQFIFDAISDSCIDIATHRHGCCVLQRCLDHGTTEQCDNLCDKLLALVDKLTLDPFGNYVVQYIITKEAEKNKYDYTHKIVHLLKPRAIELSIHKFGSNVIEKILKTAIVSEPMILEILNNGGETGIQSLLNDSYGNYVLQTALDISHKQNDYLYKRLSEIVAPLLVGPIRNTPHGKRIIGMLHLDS


These binders were tested against T1, PUF4 RNA-binding domain (assay: Mg; RNA-MaP; 20 mM Na-HEPES pH 7.4, 30 mM KOAc, 0.75 mM MgCl2, 0.1% Tween-20, 5% glycerol, 0.1 mg/mL BSA, 2 mM DTT; 25 C; 0.0125-409.6 nM protein). Settings: tags: N-His6-TEV cleaved; C-SNAP kept, Cy3B-labelled; label: tethered on chip by stalled RNA polymerase.

Row | Binder | Kd [nM]
1 | UCUCUUUGUAUGACUAUCUCUU (ssRNA) [Ib_S1_P5E.1_K5.1_C5.1_H5.1_A5.1_[T6G]_F5.1_[T8C]_T5.1] | 31.2
2 | Id_ii_S2_P5E.2_K5.1_C5.2_[C-2T]_[T-1A]_H5.1_A5.1_F5.1_T5.2_[T11A] (ssRNA) RNA: UUUGAUUAAUAUGAUAUCGUUCUUUCUUAUGUAUUAUUAAAUUCUUUCUCGAUAUCAUAUUAAUCUUU | 12.2
3 | Id_ii_S2_P5E.2_K5.1_C5.2_[C-2A]_[T-1G]_H5.1_A5.1_F5.1_T5.2_[T11A]_[A12T] (ssRNA) RNA: UUUGAUUAAUAUGAUAUCGUUCUUUCUAGUGUAUUAUUAAUUUCUUUCUCGAUAUCAUAUUAAUCUUU | 7.45
4 | Id_ii_S2_P5E.2_K5.1_C5.2_[T-1A]_H5.1_A5.1_F5.1_T5.2_[T11G]_[A12C] (ssRNA) RNA: UUUGAUUAAUAUGAUAUCGUUCUUUCUCAUGUAUUAUUAGCUUCUUUCUCGAUAUCAUAUUAAUCUUU | 2.55
5 | Id_ii_S2_P5E.2_K5.1_C5.2_[C-2A]_[T-1C]_H5.1_A5.1_F5.1_T5.2_[A12G] (ssRNA) RNA: UUUGAUUAAUAUGAUAUCGUUCUUUCUACUGUAUUAUUAUGUUCUUUCUCGAUAUCAUAUUAAUCUUU | 31.6
6 | Id_ii_S2_P5E.2_K5.1_C5.2_[T-1G]_H5.1_A5.1_F5.1_T5.2_[T11A]_[A12T] (ssRNA) RNA: UUUGAUUAAUAUGAUAUCGUUCUUUCUCGUGUAUUAUUAAUUUCUUUCUCGAUAUCAUAUUAAUCUUU | 2.03
7 | Id_ii_S2_P5E.2_K5.1_C5.2_[T-1C]_H5.1_A5.1_F5.1_T5.2_[T11A] (ssRNA) RNA: UUUGAUUAAUAUGAUAUCGUUCUUUCUCCUGUAUUAUUAAAUUCUUUCUCGAUAUCAUAUUAAUCUUU | 3.1
8 | Id_ii_S2_P5E.2_K5.1_C5.2_[C-2T]_H5.1_A5.1_F5.1_T5.2_[T11A]_[A12T] (ssRNA) RNA: UUUGAUUAAUAUGAUAUCGUUCUUUCUUUUGUAUUAUUAAUUUCUUUCUCGAUAUCAUAUUAAUCUUU | 3.17
9 | Id_ii_S2_P5E.2_K5.1_C5.2_[T-1C]_H5.1_A5.1_F5.1_T5.2_[T11A]_[A12G] (ssRNA) RNA: UUUGAUUAAUAUGAUAUCGUUCUUUCUCCUGUAUUAUUAAGUUCUUUCUCGAUAUCAUAUUAAUCUUU | 9.77
10 | Id_ii_S2_P5E.2_K5.1_C5.2_[C-2A]_[T-1C]_H5.1_A5.1_F5.1_T5.2_[A12C] (ssRNA) RNA: UUUGAUUAAUAUGAUAUCGUUCUUUCUACUGUAUUAUUAUCUUCUUUCUCGAUAUCAUAUUAAUCUUU | 2.94
11 | Id_ii_S2_P5E.2_K5.1_C5.2_[C-2A]_H5.1_A5.1_F5.1_T5.2_[T11A]_[A12C] (ssRNA) RNA: UUUGAUUAAUAUGAUAUCGUUCUUUCUAUUGUAUUAUUAACUUCUUUCUCGAUAUCAUAUUAAUCUUU | 6.07
12 | Id_ii_S2_P5E.2_K5.1_C5.2_[T-1C]_H5.1_A5.1_F5.1_T5.2_[A12G] (ssRNA) RNA: UUUGAUUAAUAUGAUAUCGUUCUUUCUCCUGUAUUAUUAUGUUCUUUCUCGAUAUCAUAUUAAUCUUU | 2.27
13 | Id_ii_S2_P5E.2_K5.1_C5.2_[C-2A]_[T-1C]_H5.1_A5.1_F5.1_T5.2_[T11A]_[A12C] (ssRNA) RNA: UUUGAUUAAUAUGAUAUCGUUCUUUCUACUGUAUUAUUAACUUCUUUCUCGAUAUCAUAUUAAUCUUU | 5.62
14 | Id_ii_S2_P5E.2_K5.1_C5.2_[T-1C]_H5.1_A5.1_F5.1_T5.2_[A12C] (ssRNA) RNA: UUUGAUUAAUAUGAUAUCGUUCUUUCUCCUGUAUUAUUAUCUUCUUUCUCGAUAUCAUAUUAAUCUUU | 1.5
15 | Id_ii_S2_P5E.2_K5.1_C5.2_[C-2T]_[T-1A]_H5.1_A5.1_F5.1_T5.2_[A12C] (ssRNA) RNA: UUUGAUUAAUAUGAUAUCGUUCUUUCUUAUGUAUUAUUAUCUUCUUUCUCGAUAUCAUAUUAAUCUUU | 4.16
16 | Id_ii_S2_P5E.2_K5.1_C5.2_[C-2T]_H5.1_A5.1_F5.1_T5.2_[A12C] (ssRNA) RNA: UUUGAUUAAUAUGAUAUCGUUCUUUCUUUUGUAUUAUUAUCUUCUUUCUCGAUAUCAUAUUAAUCUUU | 1.86
17 | Id_ii_S2_P5E.2_K5.1_C5.2_[C-2A]_[T-1A]_H5.1_A5.1_F5.1_T5.2_[T11A]_[A12C] (ssRNA) RNA: UUUGAUUAAUAUGAUAUCGUUCUUUCUAAUGUAUUAUUAACUUCUUUCUCGAUAUCAUAUUAAUCUUU | 19
18 | Id_ii_S2_P5E.2_K5.1_C5.2_[C-2A]_H5.1_A5.1_F5.1_T5.2_[A12G] (ssRNA) RNA: UUUGAUUAAUAUGAUAUCGUUCUUUCUAUUGUAUUAUUAUGUUCUUUCUCGAUAUCAUAUUAAUCUUU | 5.06
19 | Id_ii_S2_P5E.2_K5.1_C5.2_[C-2T]_H5.1_A5.1_F5.1_T5.2_[T11G]_[A12T] (ssRNA) RNA: UUUGAUUAAUAUGAUAUCGUUCUUUCUUUUGUAUUAUUAGUUUCUUUCUCGAUAUCAUAUUAAUCUUU | 3.67
20 | Id_ii_S2_P5E.2_K5.1_C5.2_[T-1G]_H5.1_A5.1_F5.1_T5.2_[A12C] (ssRNA) RNA: UUUGAUUAAUAUGAUAUCGUUCUUUCUCGUGUAUUAUUAUCUUCUUUCUCGAUAUCAUAUUAAUCUUU | 2.68
21 | Id_ii_S2_P5E.2_K5.1_C5.2_[C-2A]_H5.1_A5.1_F5.1_T5.2_[A12C] (ssRNA) RNA: UUUGAUUAAUAUGAUAUCGUUCUUUCUAUUGUAUUAUUAUCUUCUUUCUCGAUAUCAUAUUAAUCUUU | 3.2

Row | Binder | Kd [nM]
22 | Id_ii_S2_P5E.2_K5.1_C5.2_[C-2A]_H5.1_A5.1_F5.1_T5.2_[T11A]_[A12T] (ssRNA) RNA: UUUGAUUAAUAUGAUAUCGUUCUUUCUAUUGUAUUAUUAAUUUCUUUCUCGAUAUCAUAUUAAUCUUU | 5.79
23 | Id_ii_S2_P5E.2_K5.1_C5.2_[C-2A]_[T-1C]_H5.1_A5.1_F5.1_T5.2_[T11A]_[A12T] (ssRNA) RNA: UUUGAUUAAUAUGAUAUCGUUCUUUCUACUGUAUUAUUAAUUUCUUUCUCGAUAUCAUAUUAAUCUUU | 3.61
24 | Id_ii_S2_P5E.2_K5.1_C5.2_[T-1G]_H5.1_A5.1_F5.1_T5.2_[T11G]_[A12C] (ssRNA) RNA: UUUGAUUAAUAUGAUAUCGUUCUUUCUCGUGUAUUAUUAGCUUCUUUCUCGAUAUCAUAUUAAUCUUU | 2.28
25 | Id_ii_S2_P5E.2_K5.1_C5.2_[T-1G]_H5.1_A5.1_F5.1_T5.2_[T11A] (ssRNA) RNA: UUUGAUUAAUAUGAUAUCGUUCUUUCUCGUGUAUUAUUAAAUUCUUUCUCGAUAUCAUAUUAAUCUUU | 3.97
26 | Id_ii_S2_P5E.2_K5.1_C5.2_[T-1C]_H5.1_A5.1_F5.1_T5.2_[T11A]_[A12T] (ssRNA) RNA: UUUGAUUAAUAUGAUAUCGUUCUUUCUCCUGUAUUAUUAAUUUCUUUCUCGAUAUCAUAUUAAUCUUU | 1.44
27 | Id_ii_S2_P5E.2_K5.1_C5.2_[T-1G]_H5.1_A5.1_F5.1_T5.2_[A12T] (ssRNA) RNA: UUUGAUUAAUAUGAUAUCGUUCUUUCUCGUGUAUUAUUAUUUUCUUUCUCGAUAUCAUAUUAAUCUUU | 1.54
28 | Id_ii_S2_P5E.2_K5.1_C5.2_[C-2A]_[T-1A]_H5.1_A5.1_F5.1_T5.2_[A12C] (ssRNA) RNA: UUUGAUUAAUAUGAUAUCGUUCUUUCUAAUGUAUUAUUAUCUUCUUUCUCGAUAUCAUAUUAAUCUUU | 9.68
29 | Id_ii_S2_P5E.2_K5.1_C5.2_[T-1G]_H5.1_A5.1_F5.1_T5.2_[T11A]_[A12C] (ssRNA) RNA: UUUGAUUAAUAUGAUAUCGUUCUUUCUCGUGUAUUAUUAACUUCUUUCUCGAUAUCAUAUUAAUCUUU | 6.1
30 | Id_ii_S2_P5E.2_K5.1_C5.2_[C-2A]_H5.1_A5.1_F5.1_T5.2_[A12T] (ssRNA) RNA: UUUGAUUAAUAUGAUAUCGUUCUUUCUAUUGUAUUAUUAUUUUCUUUCUCGAUAUCAUAUUAAUCUUU | 2.99
31 | Id_ii_S2_P5E.2_K5.1_C5.2_[T-1C]_H5.1_A5.1_F5.1_T5.2_[T11A]_[A12C] (ssRNA) RNA: UUUGAUUAAUAUGAUAUCGUUCUUUCUCCUGUAUUAUUAACUUCUUUCUCGAUAUCAUAUUAAUCUUU | 3.51
32 | Id_ii_S2_P5E.2_K5.1_C5.2_[C-2T]_H5.1_A5.1_F5.1_T5.2_[T11A] (ssRNA) RNA: UUUGAUUAAUAUGAUAUCGUUCUUUCUUUUGUAUUAUUAAAUUCUUUCUCGAUAUCAUAUUAAUCUUU | 5.96
33 | Id_ii_S2_P5E.2_K5.1_C5.2_[T-1C]_H5.1_A5.1_F5.1_T5.2_[A12T] (ssRNA) RNA: UUUGAUUAAUAUGAUAUCGUUCUUUCUCCUGUAUUAUUAUUUUCUUUCUCGAUAUCAUAUUAAUCUUU | 0.992
34 | Id_ii_S2_P5E.2_K5.1_C5.2_[C-2T]_H5.1_A5.1_F5.1_T5.2_[A12T] (ssRNA) RNA: UUUGAUUAAUAUGAUAUCGUUCUUUCUUUUGUAUUAUUAUUUUCUUUCUCGAUAUCAUAUUAAUCUUU | 1.44
35 | Id_ii_S2_P5E.2_K5.1_C5.2_[C-2A]_[T-1A]_H5.1_A5.1_F5.1_T5.2_[T11A]_[A12T] (ssRNA) RNA: UUUGAUUAAUAUGAUAUCGUUCUUUCUAAUGUAUUAUUAAUUUCUUUCUCGAUAUCAUAUUAAUCUUU | 20.4
36 | Id_ii_S2_P5E.2_K5.1_C5.2_[C-2T]_[T-1A]_H5.1_A5.1_F5.1_T5.2_[A12T] (ssRNA) RNA: UUUGAUUAAUAUGAUAUCGUUCUUUCUUAUGUAUUAUUAUUUUCUUUCUCGAUAUCAUAUUAAUCUUU | 2.85
37 | Id_ii_S2_P5E.2_K5.1_C5.2_[C-2A]_[T-1C]_H5.1_A5.1_F5.1_T5.2_[A12T] (ssRNA) RNA: UUUGAUUAAUAUGAUAUCGUUCUUUCUACUGUAUUAUUAUUUUCUUUCUCGAUAUCAUAUUAAUCUUU | 2.49
38 | Id_ii_S2_P5E.2_K5.1_C5.2_[T-1G]_H5.1_A5.1_F5.1_T5.2_[T11G]_[A12T] (ssRNA) RNA: UUUGAUUAAUAUGAUAUCGUUCUUUCUCGUGUAUUAUUAGUUUCUUUCUCGAUAUCAUAUUAAUCUUU | 1.86
39 | UCUCUUUGUAUAACUAUCUCUU (ssRNA) [Ic_S1_P5E.1_K5.1_C5.1_H5.1_A5.1_[T6A]_F5.1_[T8C]_T5.1] | 8.58
40 | UCUCUUUGUAUAAGUAUCUCUU (ssRNA) [Ic_S1_P5E.1_K5.1_C5.1_H5.1_A5.1_[T6A]_F5.1_[T8G]_T5.1] | 54
41 | UCUCUUUGUGUUAUUAUCUCUU (ssRNA) [Ia_S1_P5E.1_K5.1_C5.1_H5.1_[A4G]_A5.1_F5.1_T5.1] | 30.7
42 | UCUCUUUGUAUCACUAUCUCUU (ssRNA) [Ib_S1_P5E.1_K5.1_C5.1_H5.1_A5.1_[T6C]_F5.1_[T8C]_T5.1] | 18
